The text below walks through data of patent US20240124881.

The target of this series is T1, DHX36 (Mus musculus) (UniProt Q8VHK9).
T1 sequence: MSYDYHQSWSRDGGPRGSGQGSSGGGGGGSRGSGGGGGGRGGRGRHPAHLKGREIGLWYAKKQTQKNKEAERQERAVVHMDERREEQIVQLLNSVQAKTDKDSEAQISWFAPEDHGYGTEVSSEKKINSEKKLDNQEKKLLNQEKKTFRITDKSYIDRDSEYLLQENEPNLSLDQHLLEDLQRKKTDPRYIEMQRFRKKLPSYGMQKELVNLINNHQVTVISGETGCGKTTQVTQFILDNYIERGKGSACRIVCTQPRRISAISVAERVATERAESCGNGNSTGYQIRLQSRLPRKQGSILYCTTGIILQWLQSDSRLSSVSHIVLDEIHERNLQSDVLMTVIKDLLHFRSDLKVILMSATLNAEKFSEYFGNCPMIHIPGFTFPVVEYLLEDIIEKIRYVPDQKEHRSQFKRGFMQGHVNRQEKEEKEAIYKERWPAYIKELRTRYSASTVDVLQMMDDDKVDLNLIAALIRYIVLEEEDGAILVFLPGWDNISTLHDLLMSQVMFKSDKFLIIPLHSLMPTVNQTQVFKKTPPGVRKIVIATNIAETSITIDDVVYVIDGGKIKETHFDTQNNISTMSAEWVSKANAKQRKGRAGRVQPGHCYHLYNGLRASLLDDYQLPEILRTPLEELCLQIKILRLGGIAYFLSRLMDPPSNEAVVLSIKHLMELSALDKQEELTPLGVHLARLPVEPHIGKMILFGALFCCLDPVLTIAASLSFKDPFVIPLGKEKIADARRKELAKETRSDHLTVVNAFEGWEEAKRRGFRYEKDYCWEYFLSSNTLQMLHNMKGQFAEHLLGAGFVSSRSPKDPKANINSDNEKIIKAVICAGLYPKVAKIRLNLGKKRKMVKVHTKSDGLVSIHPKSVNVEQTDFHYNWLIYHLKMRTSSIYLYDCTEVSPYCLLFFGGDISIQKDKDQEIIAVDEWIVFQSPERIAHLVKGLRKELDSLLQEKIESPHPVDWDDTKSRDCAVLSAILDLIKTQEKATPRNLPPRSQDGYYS
Briefly: pulldown. To be noted: N2a lysate, mass spectrometry; threshold criterion.

The substance Chaserr Exon5-MC had a binding signal (fold lower recovery than WT) of more than 2.
